Experimental data published in patent publication US20240261333A1, “NOVEL TARGETS FOR ENHANCING ANTI-TUMOR IMMUNITY” (THE BROAD INSTITUTE, INC., priority 2021, published 2024).

T1: B3GNT2 (Homo sapiens, UniProt Q9NY97)
T1 construct: The respective ORFs of candidate genes [CD274 (NM_014143), MCL1 (NM_021960), JUNB (NM_002229), and B3GNT2 (NM_006577)] were synthesized; expressed in transfected cells; host or cells: A375 melanoma cells (lentiviral ORF overexpression)
T1 sequence (Q9NY97 1-397): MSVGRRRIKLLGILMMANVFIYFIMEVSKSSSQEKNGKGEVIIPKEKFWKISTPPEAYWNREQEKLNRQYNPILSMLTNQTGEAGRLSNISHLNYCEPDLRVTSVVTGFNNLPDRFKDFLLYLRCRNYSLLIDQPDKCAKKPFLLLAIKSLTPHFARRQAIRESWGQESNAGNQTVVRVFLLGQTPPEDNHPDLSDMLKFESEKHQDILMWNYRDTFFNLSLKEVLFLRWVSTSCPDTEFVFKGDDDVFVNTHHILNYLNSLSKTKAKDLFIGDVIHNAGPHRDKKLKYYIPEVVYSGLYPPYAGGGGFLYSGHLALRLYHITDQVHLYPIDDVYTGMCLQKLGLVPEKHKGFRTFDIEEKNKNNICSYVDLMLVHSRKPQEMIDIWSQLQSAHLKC


Target: T1, B3GNT2
Experiment: Co-IP of FLAG-tagged B3GNT2 followed by mass spectrometry
Format: cell-based
Design: C-term IgG / C-term flag: unit not given here
How it was run: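 Co-purifying proteins were identified by fractionated nano-LC–MS/MS on an Orbitrap Elite, run data-dependent. Beforehand, lysates in 1% Triton X-100/HEPES buffer were incubated overnight at 4° C with anti-FLAG or […] and pulled down on Protein A/G magnetic beads for 4 h. Duplicate biological replicates.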

[1] = Co-IP with FLAG antibody, C-terminally FLAG-tagged B3GNT2, mass spectrometry count, unit not given
[2] = Co-IP with FLAG antibody, N-terminally FLAG-tagged B3GNT2, mass spectrometry count, unit not given
[3] = Co-IP with IgG control antibody, C-terminally FLAG-tagged B3GNT2, mass spectrometry count, unit not given
[4] = Co-IP with IgG control antibody, N-terminally FLAG-tagged B3GNT2, mass spectrometry count, unit not given

C-term flag (Co-IP followed by mass spectrometry of B3GNT2, C-term tag, FLAG pull-down) | C-term IgG (Co-IP followed by mass spectrometry of B3GNT2, C-term tag, IgG pull-down) | N-term FLAG (Co-IP followed by mass spectrometry of B3GNT2, N-term tag, FLAG pull-down) | N-term IgG (Co-IP followed by mass spectrometry of B3GNT2, N-term tag, IgG pull-down) | C-term flag [1] | N-term FLAG [2] | C-term IgG [3] | N-term IgG [4] | Molecule
3 | 0 | 0 | 0 | – | – | – | – | TIMP3 (protein) CTCSPSHPQDAFCNSDIVIRAKVVGKKLVKEGPFGTLVYTIKQMKMYRGFTKMPHVQYIHTEASESLCGLKLEVNKYQYLLTGRVYDGKMYTGLCNFVERWDQLTLSQRKGLNYRYHLGCNCKIKSCYYLPCFVTSKNECLWTDMLSNFGYPGYQSKHYACIRQKGGYCSWYRGWAPPDKSIINATDP
– | – | – | – | 23 | 2 | 0 | 0 | FAM3C (protein) QVFEIKMDASLGNLFARSALDTAARSTKPPRYKCGISKACPEKHFAFKMASGAANVVGPKICLEDNVLMSGVKNNVGRGINVALANGKTGEVLDTKYFDMWGGDVAPFIEFLKAIQDGTIVLMGTYDDGATKLNDEARRLIADLGSTSITNLGFRDNWVFCGGKGIKTKSPFEQHIKNNKDTNKYEGWPEVVEMEGCIPQKQD
– | – | – | – | 0 | 3 | 0 | 0 | MYL9 (protein) SSKRAKAKTTKKRPQRATSNVFAMFDQSQIQEFKEAFNMIDQNRDGFIDKEDLHDMLASLGKNPTDEYLEGMMSEAPGPINFTMFLTMFGEKLNGTDPEDVIRNAFACFDEEASGFIHEDHLRELLTTMGDRFTDEEVDEMYREAPIDKKGNFNYVEFTRILKHGAKDKDD
– | – | – | – | 27 | 0 | 0 | 0 | HYOU1 (protein) LAVMSVDLGSESMKVAIVKPGVPMEIVLNKESRRKTPVIVTLKENERFFGDSAASMAIKNPKATLRYFQHLLGKQADNPHVALYQARFPEHELTFDPQRQTVHFQISSQLQFSPEEVLGMVLNYSRSLAEDFAEQPIKDAVITVPVFFNQAERRAVLQAARMAGLKVLQLINDNTATALSYGVFRRKDINTTAQNIMFYDMGSGSTVCTIVTYQMVKTKEAGMQPQLQIRGVGFDRTLGGLEMELRLRERLAGLFNEQRKGQRAKDVRENPRAMAKLLREANRLKTVLSANADHMAQIEGLMDDVDFKAKVTRVEFEELCADLFERVPGPVQQALQSAEMSLDEIEQVILVGGATRVPRVQEVLLKAVGKEELGKNINADEAAAMGAVYQAAALSKAFKVKPFVVRDAVVYPILVEFTREVEEEPGIHSLKHNKRVLFSRMGPYPQRKVITFNRYSHDFNFHINYGDLGFLGPEDLRVFGSQNLTTVKLKGVGDSFKKYPDYESKGIKAHFNLDESGVLSLDRVESVFETLVEDSAEEESTLTKLGNTISSLFGGGTTPDAKENGTDTVQEEEESPAEGSKDEPGEQVELKEEAEAPVEDGSQPPPPEPKGDATPEGEKATEKENGDKSEAQKPSEKAEAGPEGVAPAPEGEKKQKPARKRRMVEEIGVELVVLDLPDLPEDKLAQSVQKLQDLTLRDLEKQEREKAANSLEAFIFETQDKLYQPEYQEVSTEEQREEISGKLSAASTWLEDEGVGATTVMLKEKLAELRKLCQGLFFRVEERKKWPERLSALDNLLNHSSMFLKGARLIPEMDQIFTEVEMTTLEKVINETWAWKNATLAEQAKLPATEKPVLLSKDIEAKMMALDREVQYLLNKAKFTKPRPRPKDKNGTRAEPPLNASASDQGEKVIPPAGQTEDAEPISEPEKVETGSEPGDTEPLELGGPGAEPEQKEQSTGQKRPLKNDEL
– | – | – | – | 0 | 3 | 0 | 0 | SLC25A13 (protein) AAAKVALTKRADPAELRTIFLKYASIEKNGEFFMSPNDFVTRYLNIFGESQPNPKTVELLSGVVDQTKDGLISFQEFVAFESVLCAPDALFMVAFQLFDKAGKGEVTFEDVKQVFGQTTIHQHIPFNWDSEFVQLHFGKERKRHLTYAEFTQFLLEIQLEHAKQAFVQRDNARTGRVTAIDFRDIMVTIRPHVLTPFVEECLVAAAGGTTSHQVSFSYFNGFNSLLNNMELIRKIYSTLAGTRKDVEVTKEEFVLAAQKFGQVTPMEVDILFQLADLYEPRGRMTLADIERIAPLEEGTLPFNLAEAQRQQKASGDSARPVLLQVAESAYRFGLGSVAGAVGATAVYPIDLVKTRMQNQRSTGSFVGELMYKNSFDCFKKVLRYEGFFGLYRGLLPQLLGVAPEKAIKLTVNDFVRDKFMHKDGSVPLAAEILAGGCAGGSQVIFTNPLEIVKIRLQVAGEITTGPRVSALSVVRDLGFFGIYKGAKACFLRDIPFSAIYFPCYAHVKASFANEDGQVSPGSLLLAGAIAGMPAASLVTPADVIKTRLQVAARAGQTTYSGVIDCFRKILREEGPKALWKGAGARVFRSSPQFGVTLLTYELLQRWFYIDFGGVKPMGSEPVPKSRINLPAPNPDHVGGYKLAVATFAGIENKFGLYLPLFKPSVSTSKAIGGGP
– | – | – | – | 20 | 6 | 0 | 0 | CALR (protein) EPAVYFKEQFLDGDGWTSRWIESKHKSDFGKFVLSSGKFYGDEEKDKGLQTSQDARFYALSASFEPFSNKGQTLVVQFTVKHEQNIDCGGGYVKLFPNSLDQTDMHGDSEYNIMFGPDICGPGTKKVHVIFNYKGKNVLINKDIRCKDDEFTHLYTLIVRPDNTYEVKIDNSQVESGSLEDDWDFLPPKKIKDPDASKPEDWDERAKIDDPTDSKPEDWDKPEHIPDPDAKKPEDWDEEMDGEWEPPVIQNPEYKGEWKPRQIDNPDYKGTWIHPEIDNPEYSPDPSIYAYDNFGVLGLDLWQVKSGTIFDNFLITNDEAYAEEFGNETWGVTKAAEKQMKDKQDEEQRLKEEEEDKKRKEEEEAEDKEDDEDKDEDEEDEEDKEEDEEEDVPGQAKDEL
– | – | – | – | 3 | 0 | 0 | 0 | CHCHD6 (protein) GSTESSEGRRVSFGVDEEERVRVLQGVRLSENVVNRMKEPSSPPPAPTSSTFGLQDGNLRAPHKESTLPRSGSSGGQQPSGMKEGVKRYEQEHAAIQDKLFQVAKREREAATKHSKASLPTGEGSISHEEQKSVRLARELESREAELRRRDTFYKEQLERIERKNAEMYKLSSEQFHEAASKMESTIKPRRVEPVCSGLQAQILHCYRDRPHEVLLCSDLVKAYQRCVSAAHKG
– | – | – | – | 5 | 9 | 0 | 5 | PRDX2 (protein) ASGNARIGKPAPDFKATAVVDGAFKEVKLSDYKGKYVVLFFYPLDFTFVCPTEIIAFSNRAEDFRKLGCEVLGVSVDSQFTHLAWINTPRKEGGLGPLNIPLLADVTRRLSEDYGVLKTDEGIAYRGLFIIDGKGVLRQITVNDLPVGRSVDEALRLVQAFQYTDEHGEVCPAGWKPGSDTIKPNVDDSKEYFSKHN
– | – | – | – | 18 | 9 | 0 | 0 | FAM3A (protein) FPRIQQLFTSPESSVTAAPRARKYKCGLPQPCPEEHLAFRVVSGAANVIGPKICLEDKMLMSSVKDNVGRGLNIALVNGVSGELIEARAFDMWAGDVNDLLKFIRPLHEGTLVFVASYDDPATKMNEETRKLFSELGSRNAKELAFRDSWVFVGAKGVQNKSPFEQHVKNSKHSNKYEGWPEALEMEGCIPRRSTAS
